According to patent US20120237528A1 (Janssen / Centocor, published 2012):
Where two headings read alike, the source gives them in different places.

T1: Cynomolgous monkey (cyno) TF-ECD with His Tag (cynomolgus monkey, UniProt P13726 33-251 (human entry))
T1 construct: also called cyno antigen
T1 chain: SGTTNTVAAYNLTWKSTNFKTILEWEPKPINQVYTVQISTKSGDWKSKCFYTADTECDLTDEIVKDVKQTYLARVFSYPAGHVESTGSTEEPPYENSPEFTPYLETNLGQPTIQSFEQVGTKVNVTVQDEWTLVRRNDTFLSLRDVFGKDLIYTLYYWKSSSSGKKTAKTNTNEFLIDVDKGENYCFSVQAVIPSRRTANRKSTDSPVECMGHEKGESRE


Legend:
[1] = molecular target: T2, recombinant extracellular domain (ECD) of human TF, amino acid 1-219 of the mature chain, C-terminal His6-tag (human, UniProt P13726 33-251); test: Biacore
T2 construct: expressed in a mammalian system; used for ELISA and Biacore; biotinylated by NHS-ester for the Fab ELISA; also called His6-TF-ECD1-219; HumanTF1-219

[2] = molecular target: Innovin, lyophilized recombinant human tissue factor combined with phospholipids (human, UniProt P13726 33-295, limits assumed); test: cell-based or functional assay
[3] = molecular target: T3, endogenous human tissue factor on MDA-MB-231 breast cancer cells (human, UniProt P13726 33-295); test: cell-based or functional assay
[4] = molecular target: T1, Cynomolgous monkey (cyno) TF-ECD with …; test: direct ELISA of supernatants, chemiluminescent
Protocol: A solution Phase direct TF binding ELISA using chemiluminescent detection was used to rank the top binders from human framework adaptation library. The 96 well black maxisorp plates were coated with 100 uL of 4 ug/ml Goat anti human IgG FC diluted in carbonate-bicarbonate buffer, pH 9.4 at 4° C. overnight and then washed thrice with wash buffer (PBS with 0.05% Tween-20 solution) and blocked with […] 1% BSA/10 mM PBS solution for 1 hour followed by a washing as before. Samples or standards were diluted to 50 ng/ml in Assay Buffer (1% BSA in PBS+05% Tween) and 100 ul was added to the assay plate at room temperature for 1 hour with shaking. The plates were washed thrice and 100 ul per well of human or cynomologus TF-ECD with His Tag was added at 100 ng/ml diluted in Assay Buffer and incubate for 2 hours at room temperature. After washing, 100 ul per well of Qiagen peroxidase conjugated penta-his at 1:2000 dilution in assay buffer was added and incubated 1 hour at room temperature with shaking. The BM ChemiLum Substrate (BM Chemilum, POD, Roche) was made freshly at 1:100 dilution into Buffer and 100 ul added to the plates after a final wash. After 10 minutes the plates are read on Perkin Elmer Envision Reader, BM ChemiLum program.
For primary screening of library variants in crude supernatants, samples or controls were normalized to 50 ng/ml in spent FreeStyle 293 HEK media (Gibco) and assayed at single concentration determinations. In the present assay, the concentration of antibody was 5 ng (0.1 ml used) and the TF ECD and the antigen was His6-TF-ECD₁₋₂₁₉ used at a final concentration of 10 ng/well.

[5] = molecular target: T2, recombinant extracellular domain (ECD) …; test: direct ELISA, 50 ng/ml
[6] = molecular target: T2, recombinant extracellular domain (ECD) …; test: Biacore; remark: listed apart in the source
[7] = molecular target: T1, Cynomolgous monkey (cyno) TF-ECD with …; test: Biacore
[8] = molecular target: T3, endogenous human tissue factor on …; test: cell-based or functional assay; remark: listed apart in the source
[9] = molecular target: T2, recombinant extracellular domain (ECD) …; test: TF-ECD binding ELISA, chemiluminescent
[10] = molecular target: T1, Cynomolgous monkey (cyno) TF-ECD with …; test: TF-ECD binding ELISA, chemiluminescent

Binder	Kd [1] [nM]	T½ Max (seconds), coagulation of human plasma [2] [s]	% IL-8 Inhibition [3] [%]	binding result [4]	binding result [5]	also measured
M51 (antibody, V domains shown, complete MAb; FR4 is its own entry; also called H21/L2) VH: EVQLVQSGAEVKKPGATVKISCKVSGYTFITYWIEWVQQAPGKGLEWMGDILPGSGSTNYNENFKGRVTITADTSTDTAYMELSSLRSEDTAVYYCATSGYYGNSGFAYWGQGTLVTVSS VL: DIVMTQSPDSLAVSLGERATINCKSSQSLLSSGNQKNYLTWYQQKPGQPPKLLIYWASTRESGVPDRFSGSGSGTDFTLTISSLQAEDVAVYYCQNDYTYPLTFGQGTKLEIK	2.9	207	71.5	no binding (tested: 50 ng/ml)	–	koff [1]: 0.000235 s⁻¹; kon [1]: 81100 M⁻¹ s⁻¹
M30 (antibody, V domains shown, complete MAb; FR4 is its own entry; also called H18/L2) VH: EVQLVESGGGLVQPGGSLRLSCAASGYTFITYWIEWVRQAPGKGLVWVSDILPGSGSTNYNENFKGRFTISRDNAKNTLYLQMNSLRAEDTAVYYCARSGYYGNSGFAYWGQGTLVTVSS VL: DIVMTQSPDSLAVSLGERATINCKSSQSLLSSGNQKNYLTWYQQKPGQPPKLLIYWASTRESGVPDRFSGSGSGTDFTLTISSLQAEDVAVYYCQNDYTYPLTFGQGTKLEIK	–	–	–	no binding (tested: 50 ng/ml)	binds	–
M60 (antibody, V domains shown, complete MAb; FR4 is its own entry; also called H22/L4) VH: EVQLVQSGAEVKKPGESLRISCKGSGYTFITYWIEWVRQMPGKGLEWMGDILPGSGSTNYSPSFQGHVTISADKSISTAYLQWSSLKASDTAMYYCARSGYYGNSGFAYWGQGTLVTVSS VL: DIVMTQSPLSLPVTPGEPASISCKSSQSLLSSGNQKNYLTWYLQKPGQSPQLLIYWASTRESGVPDRFSGSGSGTDFTLKISRVEAEDVGVYYCQNDYTYPLTFGQGTKLEIK	0.47	180	99.6	–	–	Kd [6]: 0.47 nM; Kd [7]: 1.31 nM; IL-8 Induction, Ave % inhibition [8]: 106%; EC50 [9]: 0.00835 µg/mL; EC50 [10]: 0.0178 µg/mL
M31 (antibody, V domains shown, complete MAb; FR4 is its own entry; also called H18/L3) VH: EVQLVESGGGLVQPGGSLRLSCAASGYTFITYWIEWVRQAPGKGLVWVSDILPGSGSTNYNENFKGRFTISRDNAKNTLYLQMNSLRAEDTAVYYCARSGYYGNSGFAYWGQGTLVTVSS VL: DIVMTQTPLSLPVTPGEPASISCKSSQSLLSSGNQKNYLTWYLQKPGQSPQLLIYWASTRESGVPDRFSGSGSGTDFTLKISRVEAEDVGVYYCQNDYTYPLTFGQGTKLEIK	–	–	–	no binding (tested: 50 ng/ml)	binds	–
M54 (antibody, V domains shown, complete MAb; FR4 is its own entry; also called H21/L5) VH: EVQLVQSGAEVKKPGATVKISCKVSGYTFITYWIEWVQQAPGKGLEWMGDILPGSGSTNYNENFKGRVTITADTSTDTAYMELSSLRSEDTAVYYCATSGYYGNSGFAYWGQGTLVTVSS VL: DIVMTQTPLSLSVTPGQPASISCKSSQSLLSSGNQKNYLTWYLQKPGQPPQLLIYWASTRESGVPDRFSGSGSGTDFTLKISRVEAEDVGVYYCQNDYTYPLTFGQGTKLEIK	–	–	–	no binding (tested: 50 ng/ml)	binds	–
M32 (antibody, V domains shown, complete MAb; FR4 is its own entry; also called H18/L4) VH: EVQLVESGGGLVQPGGSLRLSCAASGYTFITYWIEWVRQAPGKGLVWVSDILPGSGSTNYNENFKGRFTISRDNAKNTLYLQMNSLRAEDTAVYYCARSGYYGNSGFAYWGQGTLVTVSS VL: DIVMTQSPLSLPVTPGEPASISCKSSQSLLSSGNQKNYLTWYLQKPGQSPQLLIYWASTRESGVPDRFSGSGSGTDFTLKISRVEAEDVGVYYCQNDYTYPLTFGQGTKLEIK	–	–	–	no binding (tested: 50 ng/ml)	binds	–
M52 (antibody, V domains shown, complete MAb; FR4 is its own entry; also called H21/L3) VH: EVQLVQSGAEVKKPGATVKISCKVSGYTFITYWIEWVQQAPGKGLEWMGDILPGSGSTNYNENFKGRVTITADTSTDTAYMELSSLRSEDTAVYYCATSGYYGNSGFAYWGQGTLVTVSS VL: DIVMTQTPLSLPVTPGEPASISCKSSQSLLSSGNQKNYLTWYLQKPGQSPQLLIYWASTRESGVPDRFSGSGSGTDFTLKISRVEAEDVGVYYCQNDYTYPLTFGQGTKLEIK	3.57	201	67.7	no binding (tested: 50 ng/ml)	–	koff [1]: 0.000264 s⁻¹; kon [1]: 74000 M⁻¹ s⁻¹

Now from value to binder, other results behind:

Kd [1] [nM]	T½ Max (seconds), coagulation of human plasma [2] [s]	% IL-8 Inhibition [3] [%]	binding result [4]	binding result [5]	Binder	also measured
–	–	–	no binding (tested: 50 ng/ml)	binds	M56 (antibody, V domains shown, complete MAb; FR4 is its own entry; also called H21/L7) VH: EVQLVQSGAEVKKPGATVKISCKVSGYTFITYWIEWVQQAPGKGLEWMGDILPGSGSTNYNENFKGRVTITADTSTDTAYMELSSLRSEDTAVYYCATSGYYGNSGFAYWGQGTLVTVSS VL: DIVMTQTPLSSPVTLGQPASISCKSSQSLLSSGNQKNYLTWLQQRPGQPPRLLIYWASTRESGVPDRFSGSGAGTDFTLKISRVEAEDVGVYYCQNDYTYPLTFGQGTKLEIK	–
–	–	–	no binding (tested: 50 ng/ml)	binds	M33 (antibody, V domains shown, complete MAb; FR4 is its own entry; also called H18/L5) VH: EVQLVESGGGLVQPGGSLRLSCAASGYTFITYWIEWVRQAPGKGLVWVSDILPGSGSTNYNENFKGRFTISRDNAKNTLYLQMNSLRAEDTAVYYCARSGYYGNSGFAYWGQGTLVTVSS VL: DIVMTQTPLSLSVTPGQPASISCKSSQSLLSSGNQKNYLTWYLQKPGQPPQLLIYWASTRESGVPDRFSGSGSGTDFTLKISRVEAEDVGVYYCQNDYTYPLTFGQGTKLEIK	–
–	–	–	no binding (tested: 50 ng/ml)	binds	M35 (antibody, V domains shown, complete MAb; FR4 is its own entry; also called H18/L7) VH: EVQLVESGGGLVQPGGSLRLSCAASGYTFITYWIEWVRQAPGKGLVWVSDILPGSGSTNYNENFKGRFTISRDNAKNTLYLQMNSLRAEDTAVYYCARSGYYGNSGFAYWGQGTLVTVSS VL: DIVMTQTPLSSPVTLGQPASISCKSSQSLLSSGNQKNYLTWLQQRPGQPPRLLIYWASTRESGVPDRFSGSGAGTDFTLKISRVEAEDVGVYYCQNDYTYPLTFGQGTKLEIK	–
